{"source": "patent US20250277044A1", "about": "(BEIJING HANMI PHARMACEUTICAL, published 2025)", "key": {"recombinant human B7-H2": {"target": "T1, recombinant human B7-H2 (human, UniProt O75144 19-256, limits assumed)", "T1 construct": "also called B7 family member", "T1 sequence (looked up)": "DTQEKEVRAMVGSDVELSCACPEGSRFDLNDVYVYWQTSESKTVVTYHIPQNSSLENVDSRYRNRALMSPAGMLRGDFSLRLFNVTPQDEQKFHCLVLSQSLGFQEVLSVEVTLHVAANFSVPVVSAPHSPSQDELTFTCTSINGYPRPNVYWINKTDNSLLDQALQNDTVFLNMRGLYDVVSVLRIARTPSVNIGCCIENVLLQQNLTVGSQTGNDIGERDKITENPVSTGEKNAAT", "experiment": "ELISA, coated antigen 1 µg/mL"}, "recombinant human CD80": {"target": "T2, recombinant human CD80 (human, UniProt P33681 35-242)", "T2 construct": "also called B7 family member", "T2 sequence (looked up)": "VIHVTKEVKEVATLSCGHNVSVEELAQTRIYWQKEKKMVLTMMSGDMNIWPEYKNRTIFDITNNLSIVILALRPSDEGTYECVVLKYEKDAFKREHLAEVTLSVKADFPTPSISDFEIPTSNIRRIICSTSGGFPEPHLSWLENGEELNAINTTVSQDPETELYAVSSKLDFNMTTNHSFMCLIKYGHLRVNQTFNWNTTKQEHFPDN", "experiment": "ELISA, coated antigen 1 µg/mL"}, "recombinant human CD27": {"target": "recombinant human CD27 (human, UniProt P26842 20-192)", "sequence (P26842 20-192 limits assumed)": "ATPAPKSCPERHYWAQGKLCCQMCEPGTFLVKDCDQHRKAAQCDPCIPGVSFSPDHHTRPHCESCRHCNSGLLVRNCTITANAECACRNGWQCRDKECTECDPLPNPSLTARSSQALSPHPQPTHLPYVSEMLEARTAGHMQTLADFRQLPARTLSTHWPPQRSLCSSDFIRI", "experiment": "ELISA, coated antigen 1 µg/mL"}, "recombinant mouse 4-1BB": {"target": "T3, recombinant mouse 4-1BB (mouse, UniProt P20334 24-187)", "T3 construct": "Bought protein, coated on ELISA plate", "T3 sequence (looked up)": "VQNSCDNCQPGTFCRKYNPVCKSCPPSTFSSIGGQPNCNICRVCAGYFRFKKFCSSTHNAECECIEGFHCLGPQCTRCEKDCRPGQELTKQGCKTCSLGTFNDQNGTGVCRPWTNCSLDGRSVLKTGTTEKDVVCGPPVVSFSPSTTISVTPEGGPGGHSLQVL", "experiment": "ELISA, coated antigen 1 µg/mL"}, "recombinant human CD86": {"target": "T4, recombinant human CD86 (human, UniProt P42081 24-245, limits assumed)", "T4 construct": "also called B7 family member", "T4 sequence (looked up)": "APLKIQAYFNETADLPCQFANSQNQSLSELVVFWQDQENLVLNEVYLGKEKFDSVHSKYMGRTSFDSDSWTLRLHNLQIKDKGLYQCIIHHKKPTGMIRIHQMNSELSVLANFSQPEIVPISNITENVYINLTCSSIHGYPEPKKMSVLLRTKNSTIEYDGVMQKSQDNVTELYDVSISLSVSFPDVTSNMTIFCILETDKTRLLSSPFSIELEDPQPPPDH", "experiment": "ELISA, coated antigen 1 µg/mL"}, "recombinant human BTLA": {"target": "T5, recombinant human BTLA (human, UniProt Q7Z6A9 31-157, limits assumed)", "T5 construct": "also called CD28 family member", "experiment": "ELISA, coated antigen 1 µg/mL"}, "recombinant human CD28": {"target": "T6, recombinant human CD28 (human, UniProt P10747 19-152)", "T6 construct": "also called CD28 family member", "experiment": "ELISA, coated antigen 1 µg/mL"}, "recombinant human TIM-3": {"target": "recombinant human TIM-3 (human, UniProt Q8TDQ0 22-200)", "experiment": "ELISA, coated antigen 1 µg/mL"}, "recombinant human ICOS": {"target": "T7, recombinant human ICOS (human, UniProt Q9Y6W8 21-141)", "T7 construct": "also called CD28 family member", "T7 sequence (looked up)": "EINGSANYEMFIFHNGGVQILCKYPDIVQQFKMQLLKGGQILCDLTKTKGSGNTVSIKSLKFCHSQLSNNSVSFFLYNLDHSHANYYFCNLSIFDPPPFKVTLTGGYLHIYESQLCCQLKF", "experiment": "ELISA, coated antigen 1 µg/mL"}, "recombinant human PDI": {"target": "T8, recombinant human PDI (human, UniProt Q15116 25-167)", "T8 construct": "also called PD1 (printed 'PDI'); CD28 family member", "T8 sequence (Q15116 25-167 limits assumed)": "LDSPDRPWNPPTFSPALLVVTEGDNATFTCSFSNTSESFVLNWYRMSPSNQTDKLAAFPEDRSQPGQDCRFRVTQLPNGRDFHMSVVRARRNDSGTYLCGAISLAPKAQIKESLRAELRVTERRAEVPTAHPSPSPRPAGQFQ", "experiment": "ELISA, coated antigen 1 µg/mL"}, "recombinant human PD-L2": {"target": "T9, recombinant human PD-L2 (human, UniProt Q9BQ51 20-220)", "T9 construct": "also called B7 family member", "T9 sequence (looked up)": "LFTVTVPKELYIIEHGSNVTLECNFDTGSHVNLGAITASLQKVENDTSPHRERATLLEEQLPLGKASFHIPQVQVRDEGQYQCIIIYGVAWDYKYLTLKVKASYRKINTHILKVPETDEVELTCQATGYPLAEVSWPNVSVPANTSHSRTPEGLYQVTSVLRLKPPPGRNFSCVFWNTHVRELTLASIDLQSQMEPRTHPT", "experiment": "ELISA, coated antigen 1 µg/mL"}, "recombinant human CTLA4": {"target": "recombinant human CTLA4 (human, UniProt P16410 36-162)", "sequence (P16410 36-162 limits assumed)": "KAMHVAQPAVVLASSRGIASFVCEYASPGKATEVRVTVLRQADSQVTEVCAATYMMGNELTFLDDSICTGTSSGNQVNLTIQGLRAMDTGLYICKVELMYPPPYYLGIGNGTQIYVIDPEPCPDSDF", "experiment": "ELISA, coated antigen 1 µg/mL"}, "recombinant human LAG-3": {"target": "T10, recombinant human LAG-3 (human, UniProt P18627 23-450)", "T10 sequence (looked up)": "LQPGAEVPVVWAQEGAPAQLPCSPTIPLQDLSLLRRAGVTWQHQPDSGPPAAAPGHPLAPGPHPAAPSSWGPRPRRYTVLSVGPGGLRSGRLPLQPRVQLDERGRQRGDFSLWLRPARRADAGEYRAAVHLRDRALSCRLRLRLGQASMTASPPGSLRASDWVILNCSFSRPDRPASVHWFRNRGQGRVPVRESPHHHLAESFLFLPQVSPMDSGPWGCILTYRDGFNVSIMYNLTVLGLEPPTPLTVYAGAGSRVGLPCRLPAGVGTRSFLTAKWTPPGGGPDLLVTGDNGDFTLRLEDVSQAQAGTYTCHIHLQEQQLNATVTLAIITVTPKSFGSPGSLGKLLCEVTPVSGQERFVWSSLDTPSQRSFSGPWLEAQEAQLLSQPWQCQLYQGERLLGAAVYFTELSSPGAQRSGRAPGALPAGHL", "experiment": "ELISA, coated antigen 1 µg/mL"}, "recombinant human OX40": {"target": "T11, recombinant human OX40 (human, UniProt P43489 29-216)", "T11 sequence (looked up)": "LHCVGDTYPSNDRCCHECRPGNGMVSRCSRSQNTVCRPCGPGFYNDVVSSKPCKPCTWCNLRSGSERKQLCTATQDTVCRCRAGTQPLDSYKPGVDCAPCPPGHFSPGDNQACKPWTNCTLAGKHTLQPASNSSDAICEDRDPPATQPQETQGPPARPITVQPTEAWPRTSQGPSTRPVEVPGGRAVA", "experiment": "ELISA, coated antigen 1 µg/mL"}, "[1]": {"target": "T12, recombinant human 4-1BB (Sino Biological Inc., catalog number 10041-H08H) (human, UniProt Q07011 24-186)", "T12 construct": "Bought protein coated on ELISA plates; treated as the same molecule; also called recombinant human 4-1BB-His protein; CD137", "T12 sequence (Q07011 24-186 limits assumed)": "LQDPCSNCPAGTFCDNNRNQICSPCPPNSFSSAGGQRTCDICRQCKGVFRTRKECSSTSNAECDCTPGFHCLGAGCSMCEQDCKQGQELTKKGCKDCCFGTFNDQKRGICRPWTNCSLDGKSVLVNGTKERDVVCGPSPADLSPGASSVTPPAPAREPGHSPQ", "experiment": "ELISA, coated recombinant human 4-1BB, steps of Example 4"}}, "data": [{"binder": "chimeric anti-human 4-1BB monoclonal antibody mAb-33-83 (antibody, human IgG4 S228P, kappa, V domains shown, expressed in ExpiCHO cells; also called Chimeric mAbs) VH: QVQLQQPGAELVRPGASMKLSCKASGYTFTSYWINWVKQRPGQGLEWIGNIYPSDSYTNYNQKFKDKATLTVDKSSSTAYMQLSSPTSEDSAVYYCTRLYYGSSPFDYWGQGTTLTVSS VL: DIQMTQTTSSLSASLGDRVTISCRASQDISNYLNWYQQKPDGTVKLLIYHTSRLHSGVPPRFSGSGSGTNYSLTISNLEQEDIATYFCQQGHTLPRTFGGGTKLEIKR", "values": [{"measurement": "binding result", "setting": "recombinant human B7-H2", "result": "no binding"}, {"measurement": "binding result", "setting": "recombinant human CD80", "result": "no binding"}, {"measurement": "binding result", "setting": "recombinant human CD27", "result": "no binding"}, {"measurement": "binding result", "setting": "recombinant mouse 4-1BB", "result": "no binding"}, {"measurement": "binding result", "setting": "recombinant human CD86", "result": "no binding"}, {"measurement": "binding result", "setting": "recombinant human BTLA", "result": "no binding"}, {"measurement": "binding result", "setting": "recombinant human CD28", "result": "no binding"}, {"measurement": "binding result", "setting": "recombinant human TIM-3", "result": "no binding"}, {"measurement": "binding result", "setting": "recombinant human ICOS", "result": "no binding"}, {"measurement": "binding result", "setting": "recombinant human PDI", "result": "no binding"}, {"measurement": "binding result", "setting": "recombinant human PD-L2", "result": "no binding"}, {"measurement": "binding result", "setting": "recombinant human CTLA4", "result": "no binding"}, {"measurement": "binding result", "setting": "recombinant human LAG-3", "result": "no binding"}, {"measurement": "binding result", "setting": "recombinant human OX40", "result": "no binding"}]}, {"binder": "humanized anti-human 4-1BB monoclonal antibody BH3145b (antibody, human IgG4 S228P, kappa, V domains shown, also called z0) VH: QVQLVQSGAEVKKPGSSVKVSCKASGYTFTSYWINWVRQAPGQGLEWMGNIYPSDSYTNYNQKFKDRVTITADKSTSTAYMELSSLRSEDTAVYYCARLYYGSSPFDYWGQGTTVTVSS VL: DIQMTQSPSSLSASVGDRVTITCRASQDISNYLNWYQQKPGKVPKLLIYHTSRLHSGVPSRFSGSGSGTDFTLTISSLQPEDVATYYCQQGHTLPRTFGGGTKVEIKR", "values": [{"measurement": "binding result", "setting": "[1]", "result": "binds"}]}]}
